Drawing on PMC12315501 (2025), this text covers Kd for one molecule.

The target in this assay is recombinant NbRab‐G3c protein (Nicotiana benthamiana). Kind of assay: ITC.

B1: recombinant Pi17063 protein (natural protein)
chain: ASADSNERLVRAVYSTVRSRDLATDDGPKHTKRFLRGESSKIVNLKQEEGVFEERKGVSQKLTKALQAIKARYLKWEQKVLVPGFKKMAEKGVTYSELRDTFRVRMMNSGRWGTPSGFKRYARLYSEWLHRTGRSHLAK
Consider B1, for which the Kd (in general, the free concentration of one partner at which half of the binding sites on the other are occupied at equilibrium, for simple one-to-one binding) was found to be 1480 nM.
